Experimental data taken from paper PMC3230775 (Nature structural & molecular biology, 2011).

Assays:
[1] = biological target: p130Cas C-terminal domain (residues 645-870) (human) (UniProt P56945); experiment: crystal structure
[2] = biological target: T1, BCAR3 C-terminal domain (residues 502-825) (human, UniProt O75815 502-825); experiment: ITC
T1 sequence: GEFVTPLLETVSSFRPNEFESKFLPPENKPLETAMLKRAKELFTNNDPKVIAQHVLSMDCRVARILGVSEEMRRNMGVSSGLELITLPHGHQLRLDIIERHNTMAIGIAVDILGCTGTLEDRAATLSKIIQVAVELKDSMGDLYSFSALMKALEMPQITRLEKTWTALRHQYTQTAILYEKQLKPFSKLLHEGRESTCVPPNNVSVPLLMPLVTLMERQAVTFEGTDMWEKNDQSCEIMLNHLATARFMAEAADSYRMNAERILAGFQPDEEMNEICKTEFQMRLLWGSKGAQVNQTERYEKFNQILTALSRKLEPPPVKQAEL

Sequence of NSP3 C-terminal domain (residues 382-703) (domain or fragment) (Q8N5H7 382-703): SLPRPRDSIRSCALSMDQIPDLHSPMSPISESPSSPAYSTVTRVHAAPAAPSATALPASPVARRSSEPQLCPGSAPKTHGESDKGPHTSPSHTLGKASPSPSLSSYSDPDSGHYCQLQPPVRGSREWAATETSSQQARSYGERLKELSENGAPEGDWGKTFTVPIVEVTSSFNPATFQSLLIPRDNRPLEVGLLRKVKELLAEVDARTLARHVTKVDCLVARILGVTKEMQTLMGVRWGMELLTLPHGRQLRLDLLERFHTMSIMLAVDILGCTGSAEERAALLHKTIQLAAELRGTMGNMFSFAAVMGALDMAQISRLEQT

Molecule | stoichiometry N [1] | Kd [2]
NSP3 C-terminal domain (residues 382-703) (domain or fragment) | 1 | –
p130Cas C-terminal domain (residues 645-870) (domain or fragment) SQDSPDGQYENSEGGWMEDYDYVHLQGKEEFEKTQKELLEKGSITRQGKSQLELQQLKQFERLEQEVSRPIDHDLANWTPAQPLAPGRTGGLGPSDRQLLLFYLEQCEANLTTLTNAVDAFFTAVATNQPPKIFVAHSKFVILSAHKLVFIGDTLSRQAKAADVRSQVTHYSNLLCDLLRGIVATTKAAALQYPSPSAAQDMVERVKELGHSTQQFRRVLGQLAAA | – | 30 nM
